Test [1] addresses T1, human CD137 expressed on DO11.10 cells (DO11.10-hCD137) (human, UniProt Q07011 24-255). In words: cell-based or functional assay.
Target sequence in this assay (Q07011 24-255): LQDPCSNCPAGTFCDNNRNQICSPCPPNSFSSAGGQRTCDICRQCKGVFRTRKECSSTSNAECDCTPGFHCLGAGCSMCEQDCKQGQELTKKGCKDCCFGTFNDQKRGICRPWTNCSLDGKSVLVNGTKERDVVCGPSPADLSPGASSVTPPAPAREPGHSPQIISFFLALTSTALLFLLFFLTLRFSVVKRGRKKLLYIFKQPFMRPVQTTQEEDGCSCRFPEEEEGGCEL
The target of test [2] is T2, human OX40 expressed on DO11.10 cells (DO11.10-hOX40) (human, UniProt P43489 29-277).
T2 sequence: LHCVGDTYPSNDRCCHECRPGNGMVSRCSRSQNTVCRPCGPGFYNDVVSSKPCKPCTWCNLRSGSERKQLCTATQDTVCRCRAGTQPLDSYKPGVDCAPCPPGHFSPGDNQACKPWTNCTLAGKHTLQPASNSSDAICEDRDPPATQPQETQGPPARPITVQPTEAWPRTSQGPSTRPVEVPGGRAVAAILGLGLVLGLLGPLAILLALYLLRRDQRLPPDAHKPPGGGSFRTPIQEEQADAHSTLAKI
In words: cell-based or functional assay.

Test [3] deals with T1, human CD137 expressed on DO11.10 cells …. In words: cell-based or functional assay. This is another data set of the same source.
Target sequence in this assay (Q07011 24-255): as the sequence (Q07011 24-255) above
Test [4] concerns the target T2, human OX40 expressed on DO11.10 cells …. In words: flow cytometry on DO11.10 cells expressing the target, mean ± SD of three experiments. On the procedure: (§1) 50 μl of the antibody dilutions were added to the wells containing cells (final volume 100 μl) and incubated at 4° C. for 1 hour. […] The plates were washed and resuspended in 100 μl of PBS containing DAPI (Biotium, cat no 40043) at 1 μg/ml. The plates were analysed using a Canto II flow cytometer (BD Bioscience) and the data analysed using FlowJo. Dead cells were identified by their higher fluorescence on the UV (405 nm/450/50) channel and excluded from analysis. […] The GMFI data was fit using log (agonist) vs response (three parameters) in Graph Pad Prism Software to generate EC₅₀ values.
(§2) However, in this experiment, instead of using HEK cells to analyse the non-specific binding, non-transduced DO11.10 cells were used. […] The experiment was repeated three times to increase the reliability of the EC₅₀ values calculated.
A general note: A flow cytometer gives signals particle by particle.

The target in test [5] is T3, cynomolgus CD137 expressed on DO11.10 cells (DO11.10-cCD137) (cynomolgus monkey, UniProt Q07011 24-255 (human entry)).
T3 chain: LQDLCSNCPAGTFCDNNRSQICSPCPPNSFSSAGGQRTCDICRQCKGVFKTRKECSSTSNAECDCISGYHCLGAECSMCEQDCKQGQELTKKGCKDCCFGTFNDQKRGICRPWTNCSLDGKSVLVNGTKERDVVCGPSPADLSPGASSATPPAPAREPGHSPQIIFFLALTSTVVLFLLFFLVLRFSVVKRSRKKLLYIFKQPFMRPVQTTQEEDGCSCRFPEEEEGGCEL
The test is described as above. On the procedure:
as §1, §2

The target in test [6] is T1, human CD137 expressed on DO11.10 cells …. Described as above. How it is done:
as §1, §2
Target sequence in this assay (Q07011 24-255): as the sequence (Q07011 24-255) above

The target of test [7] is T4, cynomolgus OX40 expressed on DO11.10 cells (DO11.10-cOX40) (cynomolgus, UniProt P43489 29-277 (human entry)).
T4 chain: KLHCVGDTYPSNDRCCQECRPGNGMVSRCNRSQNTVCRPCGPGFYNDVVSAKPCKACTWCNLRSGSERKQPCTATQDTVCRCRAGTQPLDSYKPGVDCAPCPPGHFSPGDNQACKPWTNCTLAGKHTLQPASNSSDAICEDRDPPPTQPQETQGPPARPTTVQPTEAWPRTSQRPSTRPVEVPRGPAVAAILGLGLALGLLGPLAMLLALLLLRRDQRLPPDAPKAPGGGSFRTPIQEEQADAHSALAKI
The test is described as above. How it is done:
as §1, §2

Test [8] concerns the target T2, human OX40 expressed on DO11.10 cells …. In words: flow cytometry on DO11.10 cells expressing the target.
Test [9] has as its target T3, cynomolgus CD137 expressed on DO11.10 …. The description is as above.
The target of test [10] is T1, human CD137 expressed on DO11.10 cells …. The test is described as above.
Test [11] concerns the target T4, cynomolgus OX40 expressed on DO11.10 …. The description is as above.
The target of a further test is T5, hCD137-mFc-Avi (human).
T5 construct: Dimer; a biotinylated version was used where the text says so; also called human CD137-mFc-Avi; hCD137-mFc-Avi-Bio
In words: SPR, antibody captured via anti-human Fc, dimeric antigen flowed, 1:1 fit. On the procedure: For CD137 affinity determination, a Biacore CM5 chip (GE Healthcare) was coated with anti-human Fc using a Human Antibody Capture Kit (GE Healthcare) according to manufacturer's conditions, to a surface density of approximately 4000 RU. […] Human or cynomolgus CD137 (hCD137-mFc-Avi or cCD137-mFc-Avi) was flowed over at a range of concentrations in a three-fold dilution series starting at 200 nM, at a flow rate of 70 μl/min. The association time was 2 min and the dissociation time was 8 min. Running buffer was HBS-EP (GE Healthcare BR100188). Flow cells were regenerated by injecting 3M magnesium chloride at a flow rate of 30 μl/min for 30 seconds.
The binding kinetics were fit with a 1:1 Langmuir model to generate binding association (kₐ) and dissociation (kd) rates. Equilibrium binding constants (KD) were calculated by dividing the dissociation rate by the association rate for each sample. Data analysis was performed with BiaEvaluation software version 3.2.
On the technique in general: Surface plasmon resonance follows binding to a sensor surface in real time, without labels.

B1: FS20-22-49AA/FS30-10-16 (bispecific antibody, human IgG1, kappa, L234A L235A)
heavy: EVQLLESGGGLVQPGGSLRLSCAASGFTFSSYDMSWVRQAPGKGLEWVSDIDPTGSKTDYADSVKGRFTISRDNSKNTLYLQMNSLRAEDTAVYYCARDLLVYGFDYWGQGTLVTVSSASTKGPSVFPLAPSSKSTSGGTAALGCLVKDYFPEPVTVSWNSGALTSGVHTFPAVLQSSGLYSLSSVVTVPSSSLGTQTYICNVNHKPSNTKVDKKVEPKSCDKTHTCPPCPAPEAAGGPSVFLFPPKPKDTLMISRTPEVTCVVVDVSHEDPEVKFNWYVDGVEVHNAKTKPREEQYNSTYRVVSVLTVLHQDWLNGKEYKCKVSNKALPAPIEKTISKAKGQPREPQVYTLPPSRDEYWDQEVSLTCLVKGFYPSDIAVEWESNGDEQFAYKTTPPVLDSDGSFFLYSKLTVDQYRWNPADYFSCSVMHEALHNHYTQKSLSLSPG
light: EIVLTQSPGTLSLSPGERATLSCRASQSVSSSYLAWYQQKPGQAPRLLIYGASSRATGIPDRFSGSGSGTDFTLTISRLEPEDFAVYYCQQSYSYPVTFGQGTKVEIKRTVAAPSVFIFPPSDEQLKSGTASVVCLLNNFYPREAKVQWKVDNALQSGNSQESVTEQDSKDSTYSLSSTLTLSKADYEKHKVYACEVTHQGLSSPVTKSFNRGEC
notes: IgG1 with LALA; also called OX40/CD137 mAb^2; copies: 2 + 2
By EC50 is commonly meant the concentration giving half of the maximal effect. A word on the Kd: it is the constant that tells how readily two partners part at equilibrium. Read a low Kd as higher affinity. Regarding B1, in test [1], the “EC50 of mIL-2 release, DO11.10-hCD137 assay, crosslinked” value is 4.7 nM. For the same molecule, the “Emax of mIL-2 release, DO11.10-hCD137 assay, crosslinked” value in test [1] worked out at 16300 pg/mL. Moreover, the “CD4+ T cell activation assay, hIL-2 release EC50, crosslinked” value in test [2] was determined as 0.0833 nM. The “CD4+ T cell activation assay, hIL-2 release EC50, no crosslinker” value in test [2] is 0.113 nM. The “CD8+ T cell activation assay, hIL-2 release EC50, crosslinked” value in test [3] is 1.98 nM. For the same molecule, in test [3], the “CD8+ T cell activation assay, hIL-2 release EC50, no crosslinker” value worked out at 0.118 nM. Also, the EC50 was determined as 0.22 nM in [4]; 0.12 nM in [5]; 0.11 nM in test [6]; 0.71 nM in [7]; 0.157 nM in test [8]; 0.0803 nM in test [9]. Further, the EC50 in [10] was 0.129 nM; in test [11], 0.38 nM. Moreover, the Kd in the test with hCD137-mFc-Avi was 0.17 nM.

(Values after US20220048996A1 (F STAR BETA, published 2022).)
